This passage reports self-cleavage results from the RNAGym collection of RNA variant scans (doi:10.7554/elife.90254).

The labels stand for the following.
B1: LINE1-mini (parent)
chain: GGCAGAGCUCAACACAGCGUGGCAAAGUGGCUGUGGCUAGACUGCC

This series covers variants of B1. The experiment in a line: self-cleavage, relative activity (ratio to wild type); higher = more cleavage; in vitro, sequencing; the parent is a self-cleaving ribozyme.
Regarding A24U U32G, the self-cleavage amounted to 0.12.

On to A24U U32A, for which the self-cleavage stood at 0.07. Turning to A24U U32C, the self-cleavage amounted to 0.2.

As for A25G G33U, the self-cleavage is 0.05.

As to A25G G33A, the self-cleavage was 0.04.

Consider A25G G33C, for which the self-cleavage is 0.04. For A24U G35U the value was 0.38; for A24U G35A, 0.12. Regarding A24U G35C, the self-cleavage stood at 0.09. With A25G C31G, the self-cleavage was determined as 0.27. For A25G C31U the value was 0.13; for A25G C31A, 0.1; for A25G G30C, 1.19.

A25G G30A: the self-cleavage worked out at 0.97. A25G G30U: the self-cleavage stood at 0.89. For the variant A26C G44C, the self-cleavage stood at 0.35. Turning to A26C G44U, the self-cleavage was determined as 0.28. The result for A26C G44A reads 0.87; that for A26C C31U, 0.17. The result for A26C C31A reads 0.38; that for A26C C31G, 0.06. Turning to A25U G36C, the self-cleavage amounted to 0.05.

As for A25U G36A, the self-cleavage was 0.12. Turning to A25U G36U, the self-cleavage was found to be 0.07.

On to A25G, for which the self-cleavage came to 0.73. For A25C the value was 0.66; for A25U, 1.21; for A25U C31U, 0.23. In the case of A25U C31G, the self-cleavage was determined as 0.1. For A25U C31A the value was 0.13; for A24U U34A, 0.08.

On to A24U U34C, for which the self-cleavage was 0.09.

Turning to A24U U34G, the self-cleavage worked out at 0.24. For A25C G35C the value was 0.1. On to A25C G35U, for which the self-cleavage worked out at 0.12. For A25C G35A the value was 0.11; for A25C A41C, 0.04.

Turning to A25C A41G, the self-cleavage worked out at 0.28. The result for A25C A41U reads 0.52. For the variant A25C G36U, the self-cleavage was found to be 0.11. For the variant A25C G36C, the self-cleavage was determined as 0.07. The result for A25C G36A reads 0.21.

A26G C37A: the self-cleavage is 0.02. The result for A26G C37U reads 0.04. In the case of A26G C37G, the self-cleavage stood at 0.03. The result for A25C C45G reads 0.11; that for A25C C45A, 0.23. Consider A25C C45U, for which the self-cleavage was 0.49. With A26C C46U, the self-cleavage stood at 1.46.

As for A26C C46A, the self-cleavage was 0.83.

With A26C C46G, the self-cleavage stood at 0.75. For A26C G30A the value was 1.12; for A26C G30U, 1.45.

Regarding A25C G29C, the self-cleavage came out at 0.56. On to A25C G29A, for which the self-cleavage was 0.75. For A25C G29U the value was 1.19; for A26G G30U, 1.61. In the case of A26G G30C, the self-cleavage was 1.27. A26G G30A: the self-cleavage came out at 2.6. The result for A26C C42A reads 0.16; that for A26C C42U, 0.48; that for A26C C42G, 0.04. The result for A25G A26C reads 0.49; that for A25G A26U, 0.1; that for A25G A26G, 0.34. Turning to A24U G30A, the self-cleavage came out at 0.97. Regarding A24U G30C, the self-cleavage came to 0.62. On to A24U G30U, for which the self-cleavage stood at 1.46.

A25C C46G: the self-cleavage is 0.75. For A25C C46A, the self-cleavage was 0.36.

Take A25C C46U: the self-cleavage worked out at 0.56. As to A26C G29U, the self-cleavage stood at 0.54. For A26C G29C the value was 0.37; for A25U G30A, 1.17. With A25U G30U, the self-cleavage was determined as 1.75.

Take A25U G30C: the self-cleavage worked out at 0.46. Consider A24U G36A, for which the self-cleavage was 0.22. In the case of A24U G36C, the self-cleavage was found to be 0.11.

For the variant A24U G36U, the self-cleavage stood at 0.05. For A25U G33A the value was 0.12; for A25U G33C, 0.04. The result for A25U G33U reads 0.13; that for A25U C42G, 0.06. Regarding A25U C42U, the self-cleavage is 0.4. Take A25U C42A: the self-cleavage was 0.24. Turning to A26C C45U, the self-cleavage came out at 1.17. The result for A26C C45G reads 0.8; that for A26C C45A, 0.8; that for A26G C42A, 0.08. As to A26G C42G, the self-cleavage was determined as 0.05.

With A26G C42U, the self-cleavage was determined as 0.13. For A25C G40U the value was 0.08. Take A25C G40A: the self-cleavage was 0.1.

Take A25C G40C: the self-cleavage came to 0.06. For A25U A39U the value was 0.86; for A25U A39C, 0.23; for A25U A39G, 0.07. The result for A25C C31A reads 0.09; that for A25C C31G, 0.06. The result for A25C C31U reads 0.12; that for A25U G44U, 0.4. For A25U G44C, the self-cleavage came out at 0.29.

With A25U G44A, the self-cleavage came out at 0.28. Regarding A26C U32C, the self-cleavage worked out at 0.24. In the case of A26C U32A, the self-cleavage was 0.14. For A26C U32G the value was 0.13; for A25U A26C, 1.79. Consider A25U A26U, for which the self-cleavage was determined as 1.23. Regarding A25U A26G, the self-cleavage worked out at 0.71.

Regarding A24U U43A, the self-cleavage is 0.3. Consider A24U U43G, for which the self-cleavage stood at 0.03. The result for A24U U43C reads 0.18; that for A25G A39G, 0.07. The result for A25G A39U reads 0.81; that for A25G A39C, 0.22. For A26C A39U, the self-cleavage is 0.43. The result for A26C A39C reads 0.09; that for A26C A39G, 0.05. Take A25C U28C: the self-cleavage amounted to 0.44.

For the variant A25C U28G, the self-cleavage is 0.65. Take A25C U28A: the self-cleavage was 1.37. Take A26C G35C: the self-cleavage was 0.16.

Turning to A26C G35A, the self-cleavage was 0.18. The result for A26C G35U reads 0.09.

Regarding A25G G29A, the self-cleavage stood at 0.32. For A25G G29C the value was 0.65. The result for A25G G29U reads 1.14. As to A25U G40C, the self-cleavage was found to be 0.09. The result for A25U G40A reads 0.18; that for A25U G40U, 0.14. The result for A25U U34G reads 0.16. With A25U U34A, the self-cleavage was 0.16. On to A25U U34C, for which the self-cleavage amounted to 0.13. Take A25C G33U: the self-cleavage was 0.15.

In the case of A25C G33C, the self-cleavage is 0.04.

Consider A25C G33A, for which the self-cleavage was determined as 0.05. For A25C C42G the value was 0.04; for A25C C42A, 0.11; for A25C C42U, 0.41. The result for A26C U38C reads 0.83; that for A26C U38A, 1.02; that for A26C U38G, 0.03.

On to A25G C42A, for which the self-cleavage is 0.09. With A25G C42G, the self-cleavage is 0.05. The result for A25G C42U reads 0.26; that for A26C G27U, 0.46. With A26C G27A, the self-cleavage was determined as 0.57. Consider A26C G27C, for which the self-cleavage was determined as 0.9.

With A26G A41G, the self-cleavage came out at 0.2. Regarding A26G A41C, the self-cleavage came to 0.12. The result for A26G A41U reads 0.54; that for A26G G35C, 0.1. Consider A26G G35U, for which the self-cleavage worked out at 0.16. On to A26G G35A, for which the self-cleavage was found to be 0.1. The result for A24U G44U reads 0.19; that for A24U G44A, 0.44. As for A24U G44C, the self-cleavage was determined as 0.67. On to A25C G27U, for which the self-cleavage is 0.46.

In the case of A25C G27A, the self-cleavage was found to be 0.55. The result for A25C G27C reads 0.39. On to A25G C46A, for which the self-cleavage was 0.55. For A25G C46U the value was 0.4; for A25G C46G, 0.78; for A25C U43G, 0.12. The result for A25C U43C reads 0.04; that for A25C U43A, 0.09; that for A24U G29A, 1.72.
